Test results from patent US20100272709A1 (GENERAL HOSPITAL, published 2010).
Residue numbers refer to the chain shown, from its start. Each block holds one molecule with its values, some of them ahead of it.

What was measured:
[1] = target: wild type dynamin (dynWT; recombinant dynamin 1) (UniProt Q05193)
[2] = target: mouse monoclonal anti-dynamin GTPase antibody (Stressgene), recognizes the N-terminal GTPase domain; assay: FLIM/FRET in fixed podocytes; lifetime of donor GTPase-Alexa488 with acceptor GAR-Alexa568; - control
[3] = target: dynK44A (dominant-negative dynamin mutant that cannot bind GTP) (UniProt Q05193); assay: FLIM/FRET in fixed podocytes; donor GTPase-a488, acceptor Hudy1-a568; self-assembly
[4] = target: dynK44A (dominant-negative dynamin mutant that cannot bind GTP) (UniProt Q05193); assay: FLIM/FRET in fixed podocytes treated with cytochalasin D; donor GTPase-a488, acceptor Hudy1-a568; self-assembly
[5] = target: mouse monoclonal anti-dynamin GTPase antibody (Stressgene), recognizes the N-terminal GTPase domain; assay: FLIM/FRET in fixed podocytes; lifetime of donor GTPase-a488 with acceptor DAM-a568; + control
[6] = target: mouse monoclonal anti-dynamin GTPase antibody (Stressgene), recognizes the N-terminal GTPase domain; assay: FLIM/FRET in fixed podocytes; lifetime of donor GTPase-Alexa488 with acceptor DAM-Alexa568; + control
EYFP-dynK44A fusion = target: T1, EYFP-dynK44A fusion (UniProt Q05193); assay: FLIM/FRET in live COS cells; lifetime of the ECFP donor; self-assembly
T1 sequence (looked up): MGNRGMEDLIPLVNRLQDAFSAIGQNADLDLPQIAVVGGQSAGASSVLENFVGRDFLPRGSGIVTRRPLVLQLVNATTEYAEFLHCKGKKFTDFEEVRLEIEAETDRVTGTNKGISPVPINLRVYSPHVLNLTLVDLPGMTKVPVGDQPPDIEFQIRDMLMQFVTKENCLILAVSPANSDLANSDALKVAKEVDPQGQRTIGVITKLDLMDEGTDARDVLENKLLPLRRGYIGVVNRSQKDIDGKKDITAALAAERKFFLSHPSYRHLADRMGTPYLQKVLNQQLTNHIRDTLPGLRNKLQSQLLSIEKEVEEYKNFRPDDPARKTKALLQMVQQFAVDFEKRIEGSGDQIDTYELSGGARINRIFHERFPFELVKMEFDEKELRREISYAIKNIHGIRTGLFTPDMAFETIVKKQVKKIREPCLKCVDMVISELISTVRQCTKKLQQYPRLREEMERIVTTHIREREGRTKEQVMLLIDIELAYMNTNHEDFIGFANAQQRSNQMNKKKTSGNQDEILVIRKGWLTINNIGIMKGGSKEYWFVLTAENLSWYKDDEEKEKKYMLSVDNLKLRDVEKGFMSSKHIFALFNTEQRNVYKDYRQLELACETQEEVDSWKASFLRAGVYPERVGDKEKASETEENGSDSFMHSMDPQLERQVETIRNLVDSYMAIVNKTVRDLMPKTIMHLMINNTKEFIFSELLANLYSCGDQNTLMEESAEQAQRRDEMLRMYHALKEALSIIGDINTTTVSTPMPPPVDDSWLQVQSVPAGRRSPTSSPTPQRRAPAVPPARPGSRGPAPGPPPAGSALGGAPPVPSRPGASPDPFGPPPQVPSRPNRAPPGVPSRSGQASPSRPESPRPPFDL

[7] = target: dynI690K (assembly incompetent dynamin mutant) (UniProt Q05193); assay: FLIM/FRET in fixed podocytes; donor GTPase-a488, acceptor Hudy1-a568; self-assembly
[8] = target: dynI690K (assembly incompetent dynamin mutant) (UniProt Q05193); assay: FLIM/FRET in fixed podocytes treated with cytochalasin D; donor GTPase-a488, acceptor Hudy1-a568; self-assembly
[9] = target: dynK694A (assembly impaired, dominant activating dynamin mutant) (UniProt Q05193); assay: FLIM/FRET in fixed podocytes; donor GTPase-a488, acceptor Hudy1-a568; self-assembly
[10] = target: dynK694A (assembly impaired, dominant activating dynamin mutant) (UniProt Q05193); assay: FLIM/FRET in fixed podocytes expressing the variant; donor GTPase-Alexa488, acceptor Hudy1-Alexa568; self-assembly
[11] = target: dynK694A (assembly impaired, dominant activating dynamin mutant) (UniProt Q05193); assay: FLIM/FRET in fixed podocytes treated with cytochalasin D; donor GTPase-a488, acceptor Hudy1-a568; self-assembly
[12] = target: dynK44A (dominant-negative dynamin mutant that cannot bind GTP), Q05193
[13] = target: wild type dynamin (dynWT; recombinant dynamin 1), Q05193
[14] = target: T2, dynR725A (GTP-hydrolysis impaired dynamin mutant)
T2 chain: T1 sequence (looked up) with A44K, R725A

Mean Lifetime (γ1) [3]: 2520 ps
Mean Lifetime (γ1) [4]: 2310 ps
Molecule: dynK44A (dominant-negative dynamin mutant that cannot bind GTP) (from UniProt Q05193 1-864) (enzyme)

Mean Lifetime (γ1) [5]: 1020
Mean Lifetime (γ1) [6]: 1020
Molecule: DAM-Alexa568 (secondary antibody used as positive control acceptor)

Mean Lifetime (γ1) ps (EYFP-dynK44A fusion): 1860 ps
B1: ECFP-dynK44A fusion (protein, UniProt Q05193 1-864, looked up, not shown: large carriers)
chain: T1 sequence (looked up)

Mean Lifetime (γ1) [9]: 2410 ps
Mean Lifetime (γ1) [10]: 2410 ps
Mean Lifetime (γ1) [11]: 2050 ps
B3: dynK694A (assembly impaired, dominant activating dynamin mutant) (enzyme, UniProt Q05193 1-864, looked up)
chain: T1 sequence (looked up) with A44K, K694A

Continued, molecule first:

Molecule: purified cathepsin L (commercial)
cleavage of purified dynamin by CatL at pH 7.0 with GTP, Western blot [1]: addition of GTP resulted in the generation of a prominent proteolytic fragment with a molecular weight of -40 kD (p40)
cleavage of purified dynamin by CatL at pH 7.0 with GTPγS, Western blot [1]: addition of GTPγS, (non-hydrolysable GTP analog) did not stimulate cleavage by CatL
cleavage of purified dynamin by CatL at pH 7.0 without nucleotide, Western blot [1]: CatL did not cause significant cleavage of purified dynamin at pH 7.0
cleavage of recombinant dynamin 1 by purified cathepsin L at pH 7.0 with GTP, Western blot with GTPase antibody [1]: addition of GTP in the assay resulted in significant cleavage of dynamin by cathepsin L
cleavage of recombinant dynamin 1 by purified cathepsin L at pH 7.0 with GTPγS [1]: Addition of GTPγS, non-hydrolyzable GTP homolog abolished dynamin cleavage by cathepsin L
cleavage of recombinant dynamin by CatL at pH 5.0 and 6.0, silver staining [1]: At pH 5.0 and 6.0, CatL was highly reactive towards recombinant dynamin, even in the absence of GTP
cleavage of recombinant dynamin by CatL at pH 5.0 and 6.0 with GTPγS, silver staining [1]: this proteolysis was completely inhibited by addition of GTP7S
cleavage of recombinant dynamin by cathepsin L at pH 5.0 and 6.0 [1]: at pH 5.0 and 6.0 cathepsin L potently proteolyzed recombinant dynamin

Molecule: goat anti-rabbit-alexa568 (GARalexa568), negative control acceptor (antibody)
Mean Lifetime (γ1) [2]: 2420

Molecule: cathepsin B (CatB, Sigma)
cleavage of purified dynamin by CatB, Western blot [1]: incubation of dynamin with CatB generated p55 in a nucleotide-independent manner

B2: dynI690K (assembly incompetent dynamin mutant) (enzyme, UniProt Q05193 1-864, looked up)
chain: T1 sequence (looked up) with A44K, I690K
Mean Lifetime (γ1) [7]: 2360 ps
Mean Lifetime (γ1) [8]: 2430 ps

B4: endogenous mouse cathepsin L induced by LPS in podocytes and kidney (34 kD cytoplasmic short form) (protein)
chain: MRMIQLHNGEYSNGQHGFSMEMNAFGDMTNEEFRQVVNGYRHQKHKKGRLFQEPLMLKIPKSVDWREKGCVTPVKNQGQCGSCWAFSASGCLEGQMFLKTGKLISLSEQNLVDCSHAQGNQGCNGGLMDFAFQYIKENGGLDSEESYPYEAKDGSCKYRAEFAVANDTGFVDIPQQEKALMKAVATVGPISVAMDASHPSLQFYSSGIYYEPNCSSKNLDHGVLLVGYGYEGTDSNKNKYWLVKNSWGSEWGMEGYIKIAKDRDNHCGLATAASYPVVN
p40 proteolytic fragment in cytosol of LPS-treated podocytes expressing dynK44A, Western blot [12]: LPS treatment of podocytes expressing dynK44A, enzyme that cannot bind GTP, did not result in detectable levels of p40
p40 proteolytic fragment in cytosol of LPS-treated podocytes expressing dynWT, Western blot [13]: Addition of specific cathepsin L inhibitor (Z-FF-FMK, Calbiochem), to the tissue cultured podocytes treated with LPS resulted specifically in the loss of p40
p40 proteolytic fragment in cytosol of LPS-treated podocytes expressing dynR725A, Western blot [14]: LPS treatment of podocytes expressing dynR725A completely abolished presence of the p40
p40 proteolytic fragment in cytosol of podocytes expressing dynR725A before LPS, Western blot [14]: significant amount of p40 was present in cells expressing dynR725A prior to LPS treatment
